This assay concerns the target T1, His6-yNpl4^113–580 (Saccharomyces cerevisiae, UniProt P33755 113-580).
T1 construct: codon-optimized synthetic cDNA; also called WT; WT #1; source: E. coli Rosetta (DE3), purified (Ni-NTA, Resource Q); also in lysate, mixed with cells expressing GST-yUfd1 for co-purification; not shown: His6, N-terminal, kept
T1 sequence (looked up): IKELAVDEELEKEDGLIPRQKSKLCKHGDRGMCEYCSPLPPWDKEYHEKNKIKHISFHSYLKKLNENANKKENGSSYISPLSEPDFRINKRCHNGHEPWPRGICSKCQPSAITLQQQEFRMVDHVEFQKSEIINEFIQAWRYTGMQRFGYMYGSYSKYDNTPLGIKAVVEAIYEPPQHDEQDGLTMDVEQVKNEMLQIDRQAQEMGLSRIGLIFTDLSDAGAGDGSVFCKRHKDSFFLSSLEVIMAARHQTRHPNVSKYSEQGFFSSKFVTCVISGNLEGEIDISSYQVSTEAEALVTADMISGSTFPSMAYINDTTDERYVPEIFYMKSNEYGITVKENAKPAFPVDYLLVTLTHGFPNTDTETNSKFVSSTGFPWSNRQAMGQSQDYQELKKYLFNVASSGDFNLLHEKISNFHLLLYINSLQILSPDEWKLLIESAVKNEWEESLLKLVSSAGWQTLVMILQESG
Briefly: fluorescence polarisation; fluorescence anisotropy; 1 nM FlAsH-labeled His6-SUMO-yUfd1 peptide, His6-yNpl4^113–580 in two-fold dilution series; 25 °C; 50 mM Tris-HCl pH 8.0, 100 mM NaCl, 5 mM β-mercaptoethanol, 0.1 g/L BSA. The conditions noted are these: both partners purified. For orientation: Polarisation of emitted light reports the rotation of a fluorescent probe.

Experimental findings from paper PMC6910952 (Nature Communications, 2019) are described below.

No end group written: not given here.

B1: FlAsH-labeled His6-SUMO-yUfd1^288–305-GWCCPGCC M305A (peptide, UniProt P53044 288-305, looked up)
chain: {His6-SUMO}-EPAKLDLPEGQLFFGFPAGWCCPGCC
modifications: cysteine pairing not given here; also: FlAsH label bound to CCPGCC motif
notes: Ufd1 of Saccharomyces cerevisiae (yUfd1), residues 288-305 (NBM); also called yUfd1 M305A; source: E. coli Rosetta (DE3) (pCold-SUMO), purified (Ni-NTA, Resource Q), labeled with FlAsH-EDT2; not shown: His6, N-terminal, kept; SUMO, N-terminal, kept
As for B1, the Kd was determined as 0.261 µM.

B2: FlAsH-labeled His6-SUMO-yUfd1^288–305-GWCCPGCC G297Y (peptide, UniProt P53044 288-305, looked up)
chain: {His6-SUMO}-EPAKLDLPEYQLFFGFPMGWCCPGCC
modifications: cysteine pairing not given here; also: FlAsH label bound to CCPGCC motif
notes: Ufd1 of Saccharomyces cerevisiae (yUfd1), residues 288-305 (NBM); also called yUfd1 G297Y; source: E. coli Rosetta (DE3) (pCold-SUMO), purified (Ni-NTA, Resource Q), labeled with FlAsH-EDT2; not shown: His6, N-terminal, kept; SUMO, N-terminal, kept
With B2, the Kd came out at 2.14 µM.

B3: FlAsH-labeled His6-SUMO-yUfd1^288–305-GWCCPGCC L294A (peptide, UniProt P53044 288-305, looked up)
chain: {His6-SUMO}-EPAKLDAPEGQLFFGFPMGWCCPGCC
modifications: cysteine pairing not given here; also: FlAsH label bound to CCPGCC motif
notes: Ufd1 of Saccharomyces cerevisiae (yUfd1), residues 288-305 (NBM); also called yUfd1 L294A; source: E. coli Rosetta (DE3) (pCold-SUMO), purified (Ni-NTA, Resource Q), labeled with FlAsH-EDT2; not shown: His6, N-terminal, kept; SUMO, N-terminal, kept
In turn, B3 displayed a dissociation constant Kd of 0.527 µM.

B4: FlAsH-labeled His6-SUMO-yUfd1^288–305-GWCCPGCC F303A (peptide, UniProt P53044 288-305, looked up)
chain: {His6-SUMO}-EPAKLDLPEGQLFFGAPMGWCCPGCC
modifications: cysteine pairing not given here; also: FlAsH label bound to CCPGCC motif
notes: Ufd1 of Saccharomyces cerevisiae (yUfd1), residues 288-305 (NBM); also called yUfd1 F303A; source: E. coli Rosetta (DE3) (pCold-SUMO), purified (Ni-NTA, Resource Q), labeled with FlAsH-EDT2; not shown: His6, N-terminal, kept; SUMO, N-terminal, kept
Molecule B4 gave a Kd of 1.77 µM.

B5: FlAsH-labeled His6-SUMO-yUfd1^288–305-GWCCPGCC G297L (peptide, UniProt P53044 288-305, looked up)
chain: {His6-SUMO}-EPAKLDLPELQLFFGFPMGWCCPGCC
modifications: cysteine pairing not given here; also: FlAsH label bound to CCPGCC motif
notes: Ufd1 of Saccharomyces cerevisiae (yUfd1), residues 288-305 (NBM); also called yUfd1 G297L; source: E. coli Rosetta (DE3) (pCold-SUMO), purified (Ni-NTA, Resource Q), labeled with FlAsH-EDT2; not shown: His6, N-terminal, kept; SUMO, N-terminal, kept
In the case of B5, the Kd was found to be 0.619 µM. This Kd lies about 2.9-fold lower than the previous one.

B6: FlAsH-labeled His6-SUMO-yUfd1^288–305-GWCCPGCC G297R (peptide, UniProt P53044 288-305, looked up)
chain: {His6-SUMO}-EPAKLDLPERQLFFGFPMGWCCPGCC
modifications: cysteine pairing not given here; also: FlAsH label bound to CCPGCC motif
notes: Ufd1 of Saccharomyces cerevisiae (yUfd1), residues 288-305 (NBM); also called yUfd1 G297R; source: E. coli Rosetta (DE3) (pCold-SUMO), purified (Ni-NTA, Resource Q), labeled with FlAsH-EDT2; not shown: His6, N-terminal, kept; SUMO, N-terminal, kept
The molecule B6 gave a Kd of 20.9 µM. Compared with the last molecule, the Kd is about 34-fold higher.

B7: FlAsH-labeled His6-SUMO-yUfd1^288–305-GWCCPGCC F301A (peptide, UniProt P53044 288-305, looked up)
chain: {His6-SUMO}-EPAKLDLPEGQLFAGFPMGWCCPGCC
modifications: cysteine pairing not given here; also: FlAsH label bound to CCPGCC motif
notes: Ufd1 of Saccharomyces cerevisiae (yUfd1), residues 288-305 (NBM); also called yUfd1 F301A; source: E. coli Rosetta (DE3) (pCold-SUMO), purified (Ni-NTA, Resource Q), labeled with FlAsH-EDT2; not shown: His6, N-terminal, kept; SUMO, N-terminal, kept
For the molecule B7, binding was put at a Kd of 20.8 µM.

B8: FlAsH-labeled His6-SUMO-yUfd1^288–305-GWCCPGCC L299A (peptide, UniProt P53044 288-305, looked up)
chain: {His6-SUMO}-EPAKLDLPEGQAFFGFPMGWCCPGCC
modifications: cysteine pairing not given here; also: FlAsH label bound to CCPGCC motif
notes: Ufd1 of Saccharomyces cerevisiae (yUfd1), residues 288-305 (NBM); also called yUfd1 L299A; source: E. coli Rosetta (DE3) (pCold-SUMO), purified (Ni-NTA, Resource Q), labeled with FlAsH-EDT2; not shown: His6, N-terminal, kept; SUMO, N-terminal, kept
In turn, B8 displayed a Kd of 12.7 µM.

One may read the Kd as the constant that tells how readily two partners part at equilibrium. A higher Kd goes with a looser complex.
